± gives the standard error.
B1: library; numbered along this chain (parent)
chain: MATDAALRRLLRLHRTEIAVAVDSAFPLLHALADHDVVPEDKFQETLHLKEKEGCPQAFHALLSWLLTQDSTAILDFWRVLFKDYNLERYGRLQPILDSFPKDVDLSQPRKGRKPPAVPKALVPPPRLPTKRKASEEARAAAPAALTPRGTASPGSQLKAKPPKKPESSAEQQRLPLGNGIQTMSASVQRAVAMSSGDVPGARGAVEGILIQQVFESGGSKKCIQVGGEFYTPSKFEDSGSGKNKARSSSGPKPLVRAKGAQGAAPGGGEARLGQQGSVPAPLALPSDPQLHQKNEDECAVCRDGGELICCDGCPRAFHLACLSPPLREIPSGTWRCSSCLQATVQEVQPRAEEPRPQEPPVETPLPPGLRSAGEEVRGPPGEPLAGMDTTLVYKHLPAPPSAAPLPGLDSSALHPLLCVGPEGQQNLAPGARCGVCGDGTDVLRCTHCAAAFHWRCHFPAGTSRPGTGLRCRSCSGDVTPAPVEGVLAPSPARLAPGPAKDDTASHEPALHRDDLESLLSEHTFDGILQWAIQSMARPAAPFPS

Variants of: B1
Assay: AIRE transcriptional activation functional score (insulin promoter-GFP; nonsense median 0, synonymous median 1) (normalised score); higher = higher AIRE activity (more reporter activation)
Conditions: with insulin promoter-GFP reporter in HEK293
Method in brief: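 Codon-optimized AIRE NNN-codon libraries (three regions) were integrated by Bxb1 recombinase into Flp-In T-REx HEK293 landing-pad cells carrying an insulin core promoter-GFP reporter. Integrants (mCherry+, BFP−) sorted at day 7 were expanded 7 days; top 10% GFP and unselected integrant populations were tile-sequenced. Functional score is select versus non-select variant enrichment, wild-type subtracted. Variants needed 10 counts per million in non-select; scores were rescaled to nonsense median 0 and synonymous median 1, then averaged over biological replicates.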

AIRE transcriptional activation functional score: each site, then its substitutions
V345: Y 1.02 ± 0.18 | L 1.03 ± 0.23 | Q 0.581 ± 0.12 | A 0.719 ± 0.2 | P 1.06 ± 0.22 | R 1.14 ± 0.29 | S 0.912 ± 0.16 | M 1.28 ± 0.08 | E 0.982 ± 0.059 | G 1.12 ± 0.068 | F 1.36 ± 0.035
G333: D 0.864 ± 0.14 | V 1.05 ± 0.15 | W 1.82 ± 0.046 | R 1.08 ± 0.33 | M 1.72 ± 0.15 | E 0.832 ± 0.22 | Q 0.597 ± 0.094 | C 1.14 ± 0.053 | L 1.17 ± 0.33 | I 0.774 ± 0.32 | T 0.561 ± 0.19 | Y 1.26 ± 0.36 | K 1.24 ± 0.25 | F 1.02 ± 0.16 | P 0.594 ± 0.3 | A 0.871 ± 0.34 | S 0.365 ± 0.58 | N 0.719 ± 0.62
Q342: C 1.09 ± 0.16 | R 0.876 ± 0.31 | Y 1.06 ± 0.13 | G 0.963 ± 0.34 | L 0.929 ± 0.18 | A 0.362 ± 0.25 | I 1 ± 0.22 | D 0.916 ± 0.08 | V 0.754 ± 0.23 | F 1.08 ± 0.11 | H 0.916 ± 0.16 | K 1.04 ± 0.08 | T 0.546 ± 0.32 | S 1.13 ± 0.27 | E 0.971 ± 0.22 | N 0.925 ± 0.32 | M 1.09 ± 0.031 | P 0.83 ± 0.18 | W 1.73 ± 0.09
W335: V 1.24 ± 0.14 | L 0.997 ± 0.24 | R 1.29 ± 0.29 | Q 1.19 ± 0.092 | N 0.721 ± 0.19 | K 1.12 ± 0.3 | M 1.39 ± 0.12 | I 1.02 ± 0.12 | C 1.24 ± 0.1 | G 1.27 ± 0.12 | Y 0.768 ± 0.46 | A 1.3 ± 0.48 | P 1.04 ± 0.19 | T 1.26 ± 0.33 | D 1.1 ± 0.21 | H 0.428 ± 0.28 | F 0.764 ± 0.1 | E 1.3 ± 0.14 | S 1.27 ± 0.35
L341: A 0.936 ± 0.45 | M 0.759 ± 0.046 | P 0.971 ± 0.16 | H 0.986 ± 0.11 | W 1.32 ± 0.023 | D 0.832 ± 0.14 | I 1.21 ± 0.14 | F 1.01 ± 0.089 | Y 0.945 ± 0.15 | E 0.957 ± 0.14 | K 0.983 ± 0.25 | R 1.16 ± 0.16 | T 1.03 ± 0.2 | N 1.02 ± 0.053 | G 1.11 ± 0.15 | S 0.767 ± 0.29 | Q 1.08 ± 0.17

— the supplement of paper PMC12667976
